According to patent US20190064177A1, “INCORPORATING COMPETITIVE BINDING INFORMATION INTO MOLECULAR ARRAY ANALYSIS TO GENERATE FUNCTION NETWORKS OF INTERACTIONS” (ARIZONA BOARD OF REGENTS ON BEHALF OF ARIZONA STATE …, priority 2017, published 2019):

Target: Diaphorase
Test: peptide array, 1 uM labeled diaphorase, no FAD

fluorescence	Binder
11000	RWRYYWKSEGSG
8430	PRYSGQYGGSG
6910	PRYQNFGGGSG
8720	RAQYAQYLFGGSG
6240	YRFPNAQSPGGSG
13600	RYAYFQHLGGSG
5780	DLFQLVFSGSG
18700	YRPYGPVYNGGSG
11900	RLYPQGYGGSG
12700	YRLNLKHPVGGSG
9740	RYPWNKLYKFDGSG
10000	RWSFPAKGGSG
6840	PRSFGYNNVGGSG
15700	RWQYYNQKFGSG
14500	RQAYLFGGSG
21900	RYYPAFSGGSG
8370	YRNAAWFSGGSG
7830	RNWYGGS [RNWYGGSG]

Target: Diaphorase
Test: peptide array, 10 uM labeled diaphorase, with FAD

fluorescence	Binder
51400	RWRYYWKSEGSG
45200	PRYSGQYGGSG
36700	PRYQNFGGGSG
55400	RAQYAQYLFGGSG
37700	YRFPNAQSPGGSG
64100	RYAYFQHLGGSG
61700	RLYPQGYGGSG
56700	YRLNLKHPVGGSG
53000	RYPWNKLYKFDGSG
51200	RWSFPAKGGSG
40500	PRSFGYNNVGGSG
64000	RQAYLFGGSG
43300	YRNAAWFSGGSG
48600	RNWYGGS [RNWYGGSG]

Target: Diaphorase
Test: peptide array, 10 uM diaphorase, binding without FAD / with FAD

noFAD/FAD	Binder
1.27	RWRYYWKSEGSG
1.45	PRYSGQYGGSG
1.79	PRYQNFGGGSG
1.18	RAQYAQYLFGGSG
1.74	YRFPNAQSPGGSG
1.02	RYAYFQHLGGSG
0.499	DLFQLVFSGSG
1	YRPYGPVYNGGSG
1.06	RLYPQGYGGSG
1.16	YRLNLKHPVGGSG
1.24	RYPWNKLYKFDGSG
1.28	RWSFPAKGGSG
1.62	PRSFGYNNVGGSG
1	RWQYYNQKFGSG
1.02	RQAYLFGGSG
1	RYYPAFSGGSG
1.51	YRNAAWFSGGSG
1.35	RNWYGGS [RNWYGGSG]

Target: Diaphorase
Test: peptide array, 1 uM diaphorase, measured binding without FAD / with FAD

Binder	Meas. ratio (noFAD/FAD)
YRRFPYFPGGSG	1.6
AFNVWQYFEGGSG	0.73
WHLLGWVGYGGSG	0.7

The remaining lines, values ahead:

Meas. ratio (noFAD/FAD)	Binder
0.75	FYNFGYQDLEDGS
0.87	FLQFLGGSG
2.1	NRKFYWNAGGSG
0.78	EGFGYLFAHVGGS
0.69	ALDKLSGLWKHVG
2.43	WRVQAWRPNKVEG
0.73	FNKVLEYKWLFEG
0.72	HVYGLNLFDGSG
2.35	WRSVYVPNGGSG
0.7	KEDKVFGFRFDGS
0.7	GYHLFEKLYFDGS
0.75	DYFEGQLNHLGGS
0.7	SGVLQFFGGSG
0.71	VSWVFGLGHEGGS
0.66	PVDFGYQLKVSGS
0.68	VLAYKLQVDGSG
0.77	NHLLEGAFVSEGS
0.74	AWVELEYQYVFEG
0.69	LFDNVLEFVEDGS
1.74	YRRPWKFRDGSG
0.7	DANLFGYFKDGGS
0.69	PVPWRHVNYAHSG

Target: Diaphorase
Test: peptide array, 1 uM diaphorase, binding without FAD / with FAD

noFAD/FAD	Binder
2.7	RWRYYWKSEGSG
2.61	PRYSGQYGGSG
2.81	PRYQNFGGGSG
2.76	RAQYAQYLFGGSG
2.63	YRFPNAQSPGGSG
2.73	RYAYFQHLGGSG
0.641	DLFQLVFSGSG
2.77	YRPYGPVYNGGSG
2.62	RLYPQGYGGSG
3.05	YRLNLKHPVGGSG
2.8	RYPWNKLYKFDGSG
2.77	RWSFPAKGGSG
2.71	PRSFGYNNVGGSG
2.88	RWQYYNQKFGSG
3.23	RQAYLFGGSG
2.91	RYYPAFSGGSG
2.86	YRNAAWFSGGSG
2.66	RNWYGGS [RNWYGGSG]

Target: Diaphorase
Test: peptide array, 10 uM labeled diaphorase, with FAD; detector saturation

fluorescence	Binder
> 65500	DLFQLVFSGSG
> 65500	YRPYGPVYNGGSG
> 65500	RWQYYNQKFGSG
> 65500	RYYPAFSGGSG

Target: Diaphorase
Test: peptide array, 10 uM labeled diaphorase, no FAD

fluorescence	Binder
32700	DLFQLVFSGSG

Target: Diaphorase
Test: peptide array, 1 uM labeled diaphorase, with FAD

fluorescence	Binder
4090	RWRYYWKSEGSG
3230	PRYSGQYGGSG
2460	PRYQNFGGGSG
3160	RAQYAQYLFGGSG
2370	YRFPNAQSPGGSG
4970	RYAYFQHLGGSG
9010	DLFQLVFSGSG
6760	YRPYGPVYNGGSG
4540	RLYPQGYGGSG
4150	YRLNLKHPVGGSG
3480	RYPWNKLYKFDGSG
3610	RWSFPAKGGSG
2530	PRSFGYNNVGGSG
5460	RWQYYNQKFGSG
4480	RQAYLFGGSG
7540	RYYPAFSGGSG
2930	YRNAAWFSGGSG
2940	RNWYGGS [RNWYGGSG]

Target: Diaphorase
Test: peptide array, 10 uM labeled diaphorase, no FAD; detector saturation

fluorescence	Binder
> 65500	RWRYYWKSEGSG
> 65500	PRYSGQYGGSG
> 65500	PRYQNFGGGSG
> 65500	RAQYAQYLFGGSG
> 65500	YRFPNAQSPGGSG
> 65500	RYAYFQHLGGSG
> 65500	YRPYGPVYNGGSG
> 65500	RLYPQGYGGSG
> 65500	YRLNLKHPVGGSG
> 65500	RYPWNKLYKFDGSG
> 65500	RWSFPAKGGSG
> 65500	PRSFGYNNVGGSG
> 65500	RWQYYNQKFGSG
> 65500	RQAYLFGGSG
> 65500	RYYPAFSGGSG
> 65500	YRNAAWFSGGSG
> 65500	RNWYGGS [RNWYGGSG]
